Laboratory results taken from the Human Domainome abundance scans (Beltran et al. 2025).

B1: 1-phosphatidylinositol 4,5-bisphosphate phosphodiesterase gamma-2, residues 772 to 827; numbered along this chain, P16885 (parent)
chain: RTVKALYDYKAKRSDELSFCRGALIHNVSKEPGGWWKGDYGTRIQQYFPSNYVEDI
B2: E3 ubiquitin-protein ligase NEDD4-like, residues 539 to 589; numbered along this chain, Q96PU5 (parent)
chain: KTSLNPNDLGPLPPGWEERIHLDGRTFYIDHNSKITQWEDPRLQNPAITGP

Variants of: B1
Test: abundance fitness (aPCA) (normalised: wild type 0, dead -1); higher = more abundant; growth selection in yeast, the domain comes from the species named
Conditions: Homo sapiens

Abundance fitness, by site and new letter:
F48: R -0.982 | E -1.05 | S -0.872 | T -0.952 | P -0.923 | L -0.541
R43: G -0.01 | H 0.022 | F -0.359 | L -0.139 | V -0.349 | Y -0.228 | M -0.049 | I -0.377 | N 0.097 | S -0.199 | W -0.167 | Q -0.039 | P -0.909 | K -0.018 | T -0.269

Variants of: B2
Test: as above
Conditions: Homo sapiens

Abundance fitness of substitutions, site by site:
L4: R -0.241 | E -0.143 | I -0.136 | G -0.12 | N -0.295 | K 0.116 | T -0.303 | H -0.242 | S -0.07 | P -0.281 | Q -0.024 | F -0.003 | W -0.283 | D -0.108 | V -0.139 | A -0.205 | C -0.252 | Y -0.105
K1: S -0.19 | L -0.313 | H -0.704 | T -0.328 | I -0.062 | V -0.885 | R -0.12 | D -0.201 | W -1.08 | A -0.774 | G -1.01 | N -0.041 | E -0.473
N5: W -0.538 | A -0.167 | P -0.487 | D -0.407 | H 0.008 | R -0.293 | G -0.175 | Y -0.259 | T -0.203 | I -0.256 | S -0.123 | Q -0.267 | V -0.075 | L -0.212 | K -0.247 | M 0.01 | C -0.04 | E 0.019 | F -0.135
P6: D 0.159 | T 0.144 | I 0.077 | S 0.156 | Y -0.105 | M 0.112 | E 0.057 | Q -0.199 | N 0.374 | W -0.176 | F -0.123 | G 0.027 | H -0.237 | R 0.015 | K 0.146
G10: N 0.139 | I -0.508 | L -0.429 | A -0.076 | C -0.28 | K -0.238 | M -0.485 | D -0.24 | H -0.53 | P -0.347
L9: F -0.271 | V -0.347 | S -0.237
T2: Q -0.024 | E -0.1 | A -0.223 | D 0.142 | N 0.374 | W -0.699 | Y -0.001 | H -0.385 | K -0.066 | F 0.31 | C -0.181 | I 0.067 | R -0.365 | P -0.341 | L -0.158 | S -0.023 | G -0.308 | V -0.344
D8: R -0.034 | S -0.147 | Q -0.189 | L -0.304 | I -0.189 | P -0.218 | K -0.022 | W -0.466 | F -0.321 | A -0.138 | H -0.194 | N 0.013 | C 0.033 | M -0.307
N7: P -0.05 | Q -0.137 | F -0.11 | K -0.063 | D 0.044 | H -0.146 | E 0.001 | M -0.02 | A -0.01 | R -0.041 | V -0.114 | W -0.4 | T -0.007 | S -0.042 | G 0.005 | I -0.169 | Y -0.395 | L -0.212
S3: P -0.308 | K -0.264 | G -0.353 | W -0.86 | E -0.363 | D -0.085 | Y -0.046 | H -0.223 | R -0.338 | N 0.093 | V -0.353 | A -0.412 | T -0.175 | L -0.345 | M -0.193 | Q -0.427 | C -0.339 | I -0.162
